Measurements taken from the supplement of paper PMC9112550, “Optimization of the antimicrobial peptide Bac7 by deep mutational scanning” (BMC Biology, 2022).

Test system: Escherichia coli TOP10
Assay: shrunken log2 fold change of peptide-encoding DNA abundance (4.5 h post-induction vs induction); higher = less antimicrobial activity (less host growth inhibition)
Conditions: time post-induction: 4.5 h; library: site-saturation at positions 5, 18, 19, 20
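Further: peptides expressed intracellularly from a pBAD plasmid library in pooled LB shake-flask culture, induced with 0.3% L-arabinose, DNA abundance read by NGS, three biological replicates, DESeq2 with apeglm shrinkage.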

Row | Sequence | shrunken log2 fold change
1 | RRIRQRPPRLPRPRPRPSVWPRP | 0.128
2 | RRIRTRPPRLPRPRPRPKCWPRP | 1.72
3 | RRIRYRPPRLPRPRPRPFPIPRP | -0.705
4 | RRIRWRPPRLPRPRPRPNNEPRP | -0.0931
5 | RRIRMRPPRLPRPRPRPEHGPRP | 0.406
6 | RRIRNRPPRLPRPRPRPCGMPRP | -0.45
7 | RRIRLRPPRLPRPRPRPKPFPRP | 2.21
8 | RRIRPRPPRLPRPRPRPTFGPRP | 0.191
9 | RRIRKRPPRLPRPRPRPSRIPRP | 0.156
10 | RRIRFRPPRLPRPRPRPHQVPRP | -0.088
11 | RRIRFRPPRLPRPRPRPWGWPRP | 0.346
12 | RRIRSRPPRLPRPRPRPRCIPRP | -0.155
13 | RRIRRRPPRLPRPRPRPANDPRP | 0.275
14 | RRIRPRPPRLPRPRPRPGVYPRP | 0.0962
15 | RRIRLRPPRLPRPRPRPTIEPRP | 0.033
16 | RRIRWRPPRLPRPRPRPFHVPRP | -0.0106
17 | RRIRKRPPRLPRPRPRPTFTPRP | 0.186
18 | RRIRKRPPRLPRPRPRPTNIPRP | -0.188
19 | RRIRMRPPRLPRPRPRPKQKPRP | 0.0402
20 | RRIRVRPPRLPRPRPRPNGDPRP | -0.187

Row | Sequence | shrunken log2 fold change
21 | RRIRPRPPRLPRPRPRPIWDPRP | -0.0628
22 | RRIRHRPPRLPRPRPRPEGHPRP | 0.065
23 | RRIRIRPPRLPRPRPRPMNLPRP | -0.152
24 | RRIRPRPPRLPRPRPRPDFCPRP | -0.0633
25 | RRIRIRPPRLPRPRPRPTHGPRP | 0.0479
26 | RRIRYRPPRLPRPRPRPVKYPRP | -0.135
27 | RRIRERPPRLPRPRPRPVNFPRP | -0.0265
28 | RRIRTRPPRLPRPRPRPCLEPRP | -0.279
29 | RRIRYRPPRLPRPRPRPGTRPRP | -0.393
30 | RRIRMRPPRLPRPRPRPRQQPRP | 0.854
31 | RRIRPRPPRLPRPRPRPYINPRP | -0.739
32 | RRIRKRPPRLPRPRPRPGWQPRP | 0.347
33 | RRIRFRPPRLPRPRPRPQRHPRP | -0.0437
34 | RRIRMRPPRLPRPRPRPGIMPRP | 0.246
35 | RRIRWRPPRLPRPRPRPVIAPRP | 0.037
36 | RRIRYRPPRLPRPRPRPLILPRP | -0.767
37 | RRIRFRPPRLPRPRPRPKVWPRP | -0.249
38 | RRIRSRPPRLPRPRPRPSWTPRP | -0.299
39 | RRIRFRPPRLPRPRPRPMTCPRP | -0.0088
40 | RRIRDRPPRLPRPRPRPMHNPRP | -0.696

Row | Sequence | shrunken log2 fold change
41 | RRIRGRPPRLPRPRPRPYYLPRP | -0.791
42 | RRIRWRPPRLPRPRPRPGTEPRP | 0.403
43 | RRIRCRPPRLPRPRPRPCINPRP | -0.0741
44 | RRIRSRPPRLPRPRPRPVSWPRP | 0.437
45 | RRIRDRPPRLPRPRPRPTRVPRP | 0.0497
46 | RRIRGRPPRLPRPRPRPPDKPRP | 1.17
47 | RRIRVRPPRLPRPRPRPIAQPRP | -0.061
48 | RRIRIRPPRLPRPRPRPYLPPRP | -0.206
49 | RRIRWRPPRLPRPRPRPCVNPRP | 0.0912
50 | RRIRGRPPRLPRPRPRPDHKPRP | -0.154
51 | RRIRERPPRLPRPRPRPNLMPRP | -0.665
52 | RRIRERPPRLPRPRPRPMTYPRP | -0.121
53 | RRIRRRPPRLPRPRPRPFYMPRP | -0.198
54 | RRIRHRPPRLPRPRPRPDMYPRP | -0.00022
55 | RRIRHRPPRLPRPRPRPQSLPRP | -0.00783
56 | RRIRQRPPRLPRPRPRPIAGPRP | 0.139
57 | RRIRARPPRLPRPRPRPPDTPRP | 0.764
58 | RRIRSRPPRLPRPRPRPYGNPRP | -0.621
59 | RRIRCRPPRLPRPRPRPGPFPRP | -0.0444
60 | RRIRERPPRLPRPRPRPEIWPRP | 0.417
